Measured values from EP4714976A1 (Sunshine Lake Pharma Co., Ltd., dated 2026).
Where a chain is given by its changes, count along the chain named.

T1: FGFR4 (acro) (UniProt P22455 22-369)
T1 sequence (looked up): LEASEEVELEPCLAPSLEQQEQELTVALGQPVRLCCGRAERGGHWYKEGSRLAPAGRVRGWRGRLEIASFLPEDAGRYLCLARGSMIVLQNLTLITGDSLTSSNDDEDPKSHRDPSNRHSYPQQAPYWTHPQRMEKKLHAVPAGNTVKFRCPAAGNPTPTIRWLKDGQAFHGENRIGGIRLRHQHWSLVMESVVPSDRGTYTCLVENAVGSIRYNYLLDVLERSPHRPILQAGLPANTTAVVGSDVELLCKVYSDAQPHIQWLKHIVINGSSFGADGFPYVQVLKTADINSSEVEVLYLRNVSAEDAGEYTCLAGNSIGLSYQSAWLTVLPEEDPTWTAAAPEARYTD

B1: 1D7 scFv-Fc (Fc fusion)
chain: QIQLQQSGAELVKPGASVKMSCKASGYTFRYYNMHWVKRTPGQGLEWIGLIYPDNGDTSYNQKFKGKATLTADTSSSTAYMQLSSLTSEDSAVYYCARGGLDYWGQGTSLTVSSGGGGSGGGGSGGGGSDIQMTQSPSSMSASLGDRITITCQATQDIVKNLNWYQQKPGKPPSFLIYYATELAEGVPSRFSGSGSGSDYSLTISNLESEDFADYYCLQFYEFPLTFGAGTKLELKESKYGPPCPPCPAPEAAGGPSVFLFPPKPKDTLMISRTPEVTCVVVDVSQEDPEVQFNWYVDGVEVHNAKTKPREEQFNSTYRVVSVLTVLHQDWLNGKEYKCKVSNKGLPSSIEKTISKAKGQPREPQVYTLPPSQEEMTKNQVSLTCLVKGFYPSDIAVEWESNGQPENNYKTTPPVLDSDGSFFLYSKLTVDKSRWQEGNVFSCSVMHEALHNHYTQKSLSLSLG
notes: scFv-Fc dimer
B2: 3B7 scFv-Fc (Fc fusion)
chain: EVQLQQSGAELVKPGASVKMSCKASGYTFRYYNMHWVKRTPGQGLEWIGLIYPDNGDTSYNQKFKGKATLTADTSSSTAYMQLSSLTSEDSAVYYCARGGFDYWGQGTTLTVSSGGGGSGGGGSGGGGSDIQMTQSPASLSASVGETVTITCGASENIYGALNWYQRKQGKSPQLLIYGATNLADGMSSRFSGSGSGRQYSLKISSLHPDDVATYYCQNVLSTPYTFGGGTKLELKESKYGPPCPPCPAPEAAGGPSVFLFPPKPKDTLMISRTPEVTCVVVDVSQEDPEVQFNWYVDGVEVHNAKTKPREEQFNSTYRVVSVLTVLHQDWLNGKEYKCKVSNKGLPSSIEKTISKAKGQPREPQVYTLPPSQEEMTKNQVSLTCLVKGFYPSDIAVEWESNGQPENNYKTTPPVLDSDGSFFLYSKLTVDKSRWQEGNVFSCSVMHEALHNHYTQKSLSLSLG
notes: scFv-Fc dimer
B3: 3C9 scFv-Fc (Fc fusion)
chain: B2 chain with V2I, T28I, F101L, T134I, L235I
notes: scFv-Fc dimer
B4: 3F5 scFv-Fc (Fc fusion)
chain: B2 chain with V2I, F101L, Q132V, M133L, L235I
notes: scFv-Fc dimer
B5: 3F10 scFv-Fc (Fc fusion)
chain: B2 chain with R30S, Y31F, M34I, K38R, R39Q, G66A, T74K, I131V, Q132L, L235I
notes: scFv-Fc dimer
B6: 2B2 scFv-Fc (Fc fusion)
chain: QLQLQQSGAELVKPGASVKMSCKASGYTFASYNLHWVKQTPGQGLEWIGLIYPENGDTSYNQKFKDKATLTADKSSTTAYIQLSSLASEDSAVYFCARGGFDYWGQGTTLTVSSGGGGSGGGGSGGGGSDIVMTQSQKFMSTSVGDRVSVTCKASQNVGTNVAWYQQKPGQSPKALIYSASYRYSGVPDRFTGSGSGTDYTLTISSVQAEDLALYYCQQHYSTPYTFGGGTKLELKESKYGPPCPPCPAPEAAGGPSVFLFPPKPKDTLMISRTPEVTCVVVDVSQEDPEVQFNWYVDGVEVHNAKTKPREEQFNSTYRVVSVLTVLHQDWLNGKEYKCKVSNKGLPSSIEKTISKAKGQPREPQVYTLPPSQEEMTKNQVSLTCLVKGFYPSDIAVEWESNGQPENNYKTTPPVLDSDGSFFLYSKLTVDKSRWQEGNVFSCSVMHEALHNHYTQKSLSLSLG
notes: scFv-Fc dimer
B7: 3G10 scFv-Fc (Fc fusion)
chain: EVQLQQSGPELVKPGASVKMSCKASGYTFATYNMHWVKQTTGQGLEWIGAIYPDNGDTFYNRKFKDKATLTADKSSTTAYMQLSSLTSEDSAVYYCARGDFAYWGQGTLVTVSAGGGGSGGGGSGGGGSDVLMTQSPASLSASVGETVTITCGASENIYGALNWYQRKQGKSPQLLIYGATNLADGMSSRFSGSGSGRQYSLKISSLHPDDVATYYCQNVLSTPYTFGGGTKLEMKESKYGPPCPPCPAPEAAGGPSVFLFPPKPKDTLMISRTPEVTCVVVDVSQEDPEVQFNWYVDGVEVHNAKTKPREEQFNSTYRVVSVLTVLHQDWLNGKEYKCKVSNKGLPSSIEKTISKAKGQPREPQVYTLPPSQEEMTKNQVSLTCLVKGFYPSDIAVEWESNGQPENNYKTTPPVLDSDGSFFLYSKLTVDKSRWQEGNVFSCSVMHEALHNHYTQKSLSLSLG
notes: scFv-Fc dimer
B8: 3D7 scFv-Fc (Fc fusion)
chain: QVQLQQSGAELVKPGASVKMSCKASGYTFSFYNMHWVKRTPGRGLEWIGLIYPDNGDTSYNQKFKGKATLTADTSSSTAYMQLSSLTSEDSAVYYCARGGLDYWGQGTSLTVSSGGGGSGGGGSGGGGSEIVLTQSPASLAVSLGQRATISCKASQSVDYDGDSYMNWYQQKPGQPPKLLIYGISNRFSGVPDRFSGSGSGTDFTLKISTIKPEDLGMYYCLQGTHQPYTFGGGTKLEIKESKYGPPCPPCPAPEAAGGPSVFLFPPKPKDTLMISRTPEVTCVVVDVSQEDPEVQFNWYVDGVEVHNAKTKPREEQFNSTYRVVSVLTVLHQDWLNGKEYKCKVSNKGLPSSIEKTISKAKGQPREPQVYTLPPSQEEMTKNQVSLTCLVKGFYPSDIAVEWESNGQPENNYKTTPPVLDSDGSFFLYSKLTVDKSRWQEGNVFSCSVMHEALHNHYTQKSLSLSLG
notes: scFv-Fc dimer
B9: 1A3 scFv-Fc (Fc fusion)
chain: QVQLQQPGAELVKPGASVKMSCKASGYTFASYNLHWVKQTPGQGLEWIGLIYPENGDTSYNQKFKGKATLTADKSSSTAYIQLSSLTSEDSAVYFCARGGFDYWGQGTTLTVSQGGGGSGGGGSGGGGSDIQMTQSPASLSASVGETVTITCGASENIYGALNWYQRKQGKSPQLLIYGATNLADGMSSRFSGSGSGRQYSLKISSLHPDDVATYYCQNVLSTPYTFGGGTKLEIKESKYGPPCPPCPAPEAAGGPSVFLFPPKPKDTLMISRTPEVTCVVVDVSQEDPEVQFNWYVDGVEVHNAKTKPREEQFNSTYRVVSVLTVLHQDWLNGKEYKCKVSNKGLPSSIEKTISKAKGQPREPQVYTLPPSQEEMTKNQVSLTCLVKGFYPSDIAVEWESNGQPENNYKTTPPVLDSDGSFFLYSKLTVDKSRWQEGNVFSCSVMHEALHNHYTQKSLSLSLG
notes: scFv-Fc dimer

The binders below were run against T2, FGFR2c (acro) (UniProt P21802 22-377) (assay: ELISA, antibody 10 µg/mL).
T2 sequence (P21802 22-377): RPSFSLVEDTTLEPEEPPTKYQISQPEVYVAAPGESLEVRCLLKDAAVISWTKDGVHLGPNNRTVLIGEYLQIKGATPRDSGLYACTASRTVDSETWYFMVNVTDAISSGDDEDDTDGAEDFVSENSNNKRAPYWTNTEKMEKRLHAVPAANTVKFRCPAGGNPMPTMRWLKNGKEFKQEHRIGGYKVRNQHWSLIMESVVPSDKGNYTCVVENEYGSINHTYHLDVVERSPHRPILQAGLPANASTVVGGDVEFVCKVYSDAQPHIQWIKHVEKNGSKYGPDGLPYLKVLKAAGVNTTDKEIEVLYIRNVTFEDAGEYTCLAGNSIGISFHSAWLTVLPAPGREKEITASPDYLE

Row | Binder | OD (450 nm) value
1 | B1 | 0.091
2 | B2 | 0.089
3 | B3 | 0.118
4 | B4 | 0.111
5 | B5 | 0.106
6 | B6 | 0.113
7 | B7 | 0.096
8 | B8 | 0.127

These binders were tested against T1, FGFR4 (acro) (assay: ELISA).

Row | Binder | binding result
9 | B1 | no binding (tested: 10 µg/mL)
10 | B2 | no binding (tested: 10 µg/mL)
11 | B9 | no binding (tested: 10 µg/mL)
12 | B3 | no binding (tested: 10 µg/mL)
13 | B4 | no binding (tested: 10 µg/mL)
14 | B5 | no binding (tested: 10 µg/mL)
15 | B6 | no binding (tested: 10 µg/mL)

These binders were tested against T2, FGFR2c (acro) (assay: ELISA).

Row | Binder | binding result
16 | B1 | no binding (tested: 10 µg/mL)
17 | B2 | no binding (tested: 10 µg/mL)
18 | B3 | no binding (tested: 10 µg/mL)
19 | B4 | no binding (tested: 10 µg/mL)
20 | B5 | no binding (tested: 10 µg/mL)
21 | B6 | no binding (tested: 10 µg/mL)
22 | B7 | no binding (tested: 10 µg/mL)
23 | B8 | no binding (tested: 10 µg/mL)

The binders below were run against T1, FGFR4 (acro) (assay: ELISA, antibody 10 µg/mL).

Row | Binder | OD (450 nm) value
24 | B1 | 0.156
25 | B2 | 0.116
26 | B9 | 0.099
27 | B3 | 0.139
28 | B4 | 0.145
29 | B5 | 0.123
30 | B6 | 0.093

The binders below were run against T3, human FGFR2b (Kaixia Biotechnology, catalog number FGR-HM1BB) (human, UniProt P21802-3 22-378) (assay: BLI, antibody on AHC2 sensor).
T3 construct: extracellular domain; bought; also called hFGFR2b; human FGFR2b protein
T3 sequence (P21802 other isoform, or with tags, fused parts or gaps): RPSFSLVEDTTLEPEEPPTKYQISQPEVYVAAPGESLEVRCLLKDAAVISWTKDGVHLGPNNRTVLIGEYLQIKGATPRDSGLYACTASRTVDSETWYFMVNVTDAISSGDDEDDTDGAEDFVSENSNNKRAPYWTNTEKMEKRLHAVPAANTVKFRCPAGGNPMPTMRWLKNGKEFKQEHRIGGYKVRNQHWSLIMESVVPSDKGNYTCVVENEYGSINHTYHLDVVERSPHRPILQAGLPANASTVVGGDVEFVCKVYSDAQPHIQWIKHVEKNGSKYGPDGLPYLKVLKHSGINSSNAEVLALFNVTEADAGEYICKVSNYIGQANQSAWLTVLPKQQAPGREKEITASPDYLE

Row | Binder | Kd [nM] | koff [s⁻¹] | kon [M⁻¹ s⁻¹]
31 | B1 | 4.51 | 0.00208 | 460000
32 | B2 | 7.6 | 0.00203 | 267000
33 | B9 | 12.2 | 0.00477 | 392000
34 | B3 | 2.7 | 0.000954 | 353000
35 | B4 | 5.1 | 0.00143 | 281000
36 | B5 | 7.62 | 0.00231 | 303000
37 | B6 | 6.18 | 0.00286 | 462000
38 | B7 | 6.25 | 0.00199 | 318000
39 | B8 | 8.58 | 0.00203 | 236000

These binders were tested against T4, FGFR2b on KATO III cells (human, UniProt P21802-3 22-822) (assay: flow cytometry, KATO III cells).
T4 construct: whole, on cells; also called KATO III cells that overexpress FGFR2b
T4 sequence (P21802 other isoform, or with tags, fused parts or gaps): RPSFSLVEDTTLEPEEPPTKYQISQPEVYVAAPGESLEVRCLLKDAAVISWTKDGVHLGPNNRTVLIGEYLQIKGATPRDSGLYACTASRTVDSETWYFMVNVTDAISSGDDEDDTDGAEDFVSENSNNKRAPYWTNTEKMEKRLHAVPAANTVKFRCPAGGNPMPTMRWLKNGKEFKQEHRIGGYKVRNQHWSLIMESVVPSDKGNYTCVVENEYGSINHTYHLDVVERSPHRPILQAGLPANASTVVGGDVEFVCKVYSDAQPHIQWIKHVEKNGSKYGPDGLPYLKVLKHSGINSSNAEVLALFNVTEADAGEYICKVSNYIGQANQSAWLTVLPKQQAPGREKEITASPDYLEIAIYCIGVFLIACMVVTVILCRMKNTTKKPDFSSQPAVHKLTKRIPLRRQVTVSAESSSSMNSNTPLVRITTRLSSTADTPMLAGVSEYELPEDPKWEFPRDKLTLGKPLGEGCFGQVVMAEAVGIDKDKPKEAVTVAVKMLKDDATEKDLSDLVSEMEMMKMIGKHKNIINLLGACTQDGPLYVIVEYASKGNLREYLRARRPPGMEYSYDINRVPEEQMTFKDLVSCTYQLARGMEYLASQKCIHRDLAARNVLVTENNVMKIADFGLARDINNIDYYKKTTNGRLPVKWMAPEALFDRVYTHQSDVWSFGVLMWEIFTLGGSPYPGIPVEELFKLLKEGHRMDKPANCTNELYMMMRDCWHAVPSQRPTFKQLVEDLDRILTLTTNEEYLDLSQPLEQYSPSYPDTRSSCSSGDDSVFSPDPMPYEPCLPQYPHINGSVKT

Row | Binder | EC50 [µg/mL]
40 | B1 | 0.167
41 | B2 | 0.117
42 | B9 | 0.0656
43 | B3 | 0.253
44 | B4 | 0.105
45 | B5 | 0.159
46 | B6 | 0.233
47 | B7 | 0.149
48 | B8 | 0.259

These binders were tested against T3, human FGFR2b (Kaixia Biotechnology, …) (assay: ELISA, FGFR2b coated at 1 µg/ml).

Row | Binder | EC50 [µg/mL]
49 | B1 | 0.0154
50 | B2 | 0.0147
51 | B9 | 0.00818
52 | B3 | 0.0147
53 | B4 | 0.0159
54 | B5 | 0.00818
55 | B6 | 0.0216
56 | B7 | 0.0276
57 | B8 | 0.0369

These binders were tested against T5, recombinant cynomolgus monkey FGFR2b (cynomolgus monkey) (assay: ELISA, antibody 1ug/mL).
T5 construct: extracellular domain; bought; also called cynomolgus macaque FGFR2b

Row | Binder | OD (450 nm) value
58 | B1 | 3.17
59 | B2 | 3.12
60 | B9 | 3.27
61 | B3 | 3.25
62 | B4 | 3.17
63 | B5 | 3.22
64 | B6 | 3.19
65 | B7 | 3.12
66 | B8 | 3.3
